The stoichiometry N is a count of units in the complex or per binding partner.

Consider two molecules from publication PMC12667517, “Gigaxonin Potentiates Antiviral Innate Immune Responses by Targeting cGAS and TREX1” (Advanced Science, 2025).

Data set [1] concerns the molecule itself. The data set can be described thus: native gel or EMSA; native PAGE of THP-1 cell lysates, cells infected with HSV-1 (MOI = 1) for the indicated times.
Data set [2] concerns the target T1, endogenous IRF3 in THP-1 cells (human (endogenous in THP-1)), Q14653.
T1 chain: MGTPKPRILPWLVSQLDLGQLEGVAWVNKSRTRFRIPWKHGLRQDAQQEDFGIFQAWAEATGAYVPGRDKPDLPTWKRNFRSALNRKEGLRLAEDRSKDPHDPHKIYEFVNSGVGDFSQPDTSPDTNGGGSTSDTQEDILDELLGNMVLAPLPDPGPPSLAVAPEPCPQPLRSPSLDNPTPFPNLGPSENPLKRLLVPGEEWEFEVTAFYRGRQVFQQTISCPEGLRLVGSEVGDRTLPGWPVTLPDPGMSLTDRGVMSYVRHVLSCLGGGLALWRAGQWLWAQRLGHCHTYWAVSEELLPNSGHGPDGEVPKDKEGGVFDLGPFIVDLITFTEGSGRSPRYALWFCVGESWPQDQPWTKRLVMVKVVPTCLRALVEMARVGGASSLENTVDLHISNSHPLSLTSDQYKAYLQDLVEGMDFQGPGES
Described as above. To be noted: remark: other sources report otherwise.

B1: endogenous gigaxonin in THP-1 cells (natural protein, human (endogenous in THP-1), UniProt Q9H2C0 1-597, looked up)
chain: MAEGSAVSDPQHAARLLRALSSFREESRFCDAHLVLDGEEIPVQKNILAAASPYIRTKLNYNPPKDDGSTYKIELEGISVMVMREILDYIFSGQIRLNEDTIQDVVQAADLLLLTDLKTLCCEFLEGCIAAENCIGIRDFALHYCLHHVHYLATEYLETHFRDVSSTEEFLELSPQKLKEVISLEKLNVGNERYVFEAVIRWIAHDTEIRKVHMKDVMSALWVSGLDSSYLREQMLNEPLVREIVKECSNIPLSQPQQGEAMLANFKPRGYSECIVTVGGEERVSRKPTAAMRCMCPLYDPNRQLWIELAPLSMPRINHGVLSAEGFLFVFGGQDENKQTLSSGEKYDPDANTWTALPPMNEARHNFGIVEIDGMLYILGGEDGEKELISMECYDIYSKTWTKQPDLTMVRKIGCYAAMKKKIYAMGGGSYGKLFESVECYDPRTQQWTAICPLKERRFGAVACGVAMELYVFGGVRSREDAQGSEMVTCKSEFYHDEFKRWIYLNDQNLCIPASSSFVYGAVPIGASIYVIGDLDTGTNYDYVREFKRSTGTWHHTKPLLPSDLRRTGCAALRIANCKLFRLQLQQGLFRIRVHSP
notes: By native PAGE both dimer and monomer in the steady state; source: endogenous, THP-1 lysate
Turning to B1, in data set [1], the “stoichiometry N” value worked out at 2.

B2: endogenous IRF3 in THP-1 cells, Q14653 1-427 (natural protein)
chain: T1 chain
B2 gave a stoichiometry N in data set [2] of 2.
